Results taken from paper PMC5059739, “A distinct holoenzyme organization for two-subunit pyruvate carboxylase” (Nature Communications, 2016).

Columns and labels:
[1] = target: Pseudomonas aeruginosa pyruvate carboxylase (PaPC) α subunit (Pseudomonas aeruginosa); assay: AUC; sedimentation velocity, 0.5 mg/ml, 20 °C, 42,000 r.p.m., 20 mM Tris pH 8.0, 150 mM NaCl, continuous c(s) distribution (SEDFIT)
[2] = target: T1, SaPC (single-chain pyruvate carboxylase) (Staphylococcus aureus, UniProt A0A0H3JRU9); assay: malate dehydrogenase-coupled PC activity with and without acetyl-CoA; format: biochemical; settings: allosteric activator
T1 construct: gene pycA; single-chain homo-tetramer, ~570 kDa by AUC; expression not described here
T1 sequence (A0A0H3JRU9 1-1150): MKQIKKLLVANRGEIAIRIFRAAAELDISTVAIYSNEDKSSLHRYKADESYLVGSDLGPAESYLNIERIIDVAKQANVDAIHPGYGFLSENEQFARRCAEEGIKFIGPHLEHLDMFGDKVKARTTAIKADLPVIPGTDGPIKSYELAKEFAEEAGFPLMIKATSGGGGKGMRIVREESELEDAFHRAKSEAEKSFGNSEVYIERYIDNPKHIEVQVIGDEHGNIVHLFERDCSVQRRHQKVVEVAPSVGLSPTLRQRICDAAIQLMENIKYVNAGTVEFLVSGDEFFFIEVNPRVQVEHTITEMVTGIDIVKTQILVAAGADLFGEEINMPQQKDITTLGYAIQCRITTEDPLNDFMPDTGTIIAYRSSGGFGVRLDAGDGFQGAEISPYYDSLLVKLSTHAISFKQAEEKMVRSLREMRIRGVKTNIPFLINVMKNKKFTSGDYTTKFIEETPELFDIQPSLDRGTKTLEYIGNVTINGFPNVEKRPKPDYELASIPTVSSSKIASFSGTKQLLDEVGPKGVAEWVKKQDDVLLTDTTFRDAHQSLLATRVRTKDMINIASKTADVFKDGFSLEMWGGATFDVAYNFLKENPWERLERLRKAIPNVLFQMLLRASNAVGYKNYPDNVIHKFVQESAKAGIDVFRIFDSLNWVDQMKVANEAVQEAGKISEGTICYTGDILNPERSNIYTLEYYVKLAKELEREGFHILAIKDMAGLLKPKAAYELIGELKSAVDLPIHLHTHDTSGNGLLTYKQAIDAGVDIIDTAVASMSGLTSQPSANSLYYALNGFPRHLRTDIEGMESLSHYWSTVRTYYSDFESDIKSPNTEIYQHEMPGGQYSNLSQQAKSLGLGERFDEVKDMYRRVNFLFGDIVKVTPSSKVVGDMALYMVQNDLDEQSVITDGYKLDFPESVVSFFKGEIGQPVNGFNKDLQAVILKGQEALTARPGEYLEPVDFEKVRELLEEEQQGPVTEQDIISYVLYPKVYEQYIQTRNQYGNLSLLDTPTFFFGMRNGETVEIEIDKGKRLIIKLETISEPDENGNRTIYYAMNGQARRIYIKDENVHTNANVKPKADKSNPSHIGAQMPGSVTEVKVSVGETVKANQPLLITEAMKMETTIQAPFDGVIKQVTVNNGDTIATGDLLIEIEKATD

[3] = target: MfPC α subunit expressed and purified alone (pET28a, N-terminal hexa-histidine tag) (Methylobacillus flagellatus); assay: SEC; analytical gel filtration of separately purified MfPC α and β subunits, alone and mixed in 1:2, 1:1 or 2:1 molar ratios; peak fractions on SDS-PAGE
[4] = target: MfPC β subunit K581A mutant, purified alone (Methylobacillus flagellatus)
[5] = target: MfPC α subunit with the B sub-domain of BC (residues 131–201) replaced by a Gly–Ser–Ser–Gly linker (Methylobacillus flagellatus); assay: crystal structure; mutant MfPC (B domain deletion in α; K419A, E421A, E422A in β), 3.0 Å, space group R32, one α2β4 oligomer in the asymmetric unit; sitting drop, 20 °C, 2.5 mM pyruvate, 19% PEG3350, 2% tacsimate pH 6.0, 3% ethanol
[6] = target: MfPC β subunit with the surface entropy reduction mutations K419A, E421A and E422A, untagged (Methylobacillus flagellatus); assay: as above
[7] = target: Methylobacillus flagellatus pyruvate carboxylase (MfPC) α subunit, N-terminal hexa-histidine tag, co-expressed with the β subunit (Methylobacillus flagellatus); assay: crystal structure; 'wild-type' MfPC (K419A, E421A, E422A in β), 6.6 Å, space group P3(1)21, one α and two β in the asymmetric unit, α2β4 by a crystallographic two-fold axis; 2.5 mM ATP and 2.5 mM pyruvate, 1.3 M ammonium sulfate, 0.1 M sodium citrate pH 6.0
[8] = target: MfPC β subunit with the surface entropy reduction mutations K419A, E421A and E422A, untagged (Methylobacillus flagellatus); assay: as above
[9] = target: Methylobacillus flagellatus pyruvate carboxylase (MfPC) α subunit, N-terminal hexa-histidine tag, co-expressed with the β subunit (Methylobacillus flagellatus); assay: SEC; gel filtration of two-subunit PCs purified from E. coli co-expression, with Coomassie-stained SDS-PAGE of the purified complexes and of known amounts of α and β subunits; also with an extra plasmid expressing only α
[10] = target: the molecule itself; assay: AUC; sedimentation velocity, 0.5 mg/ml, 20 °C, 42,000 r.p.m., 20 mM Tris pH 8.0, 150 mM NaCl, continuous c(s) distribution (SEDFIT)

## Pseudomonas aeruginosa pyruvate carboxylase (PaPC) β subunit (enzyme)
[1]
  stoichiometry N: 2 β per α

## CC(=O)SCCNC(=O)CCNC(=O)[C@H](O)C(C)(C)COP(=O)(O)OP(=O)(O)OC[C@H]1O[C@@H](n2cnc3c(N)ncnc32)[C@H](O)[C@@H]1OP(=O)(O)O [acetyl-CoA]
[2]
  activation: When acetyl-CoA is present, SaPC activity becomes comparable to those of the two-subunit PCs

## MfPC β subunit expressed and purified alone (pET28a, N-terminal hexa-histidine tag) (enzyme)
[3]
  stoichiometry N: 2 β per α

## MfPC β subunit A49T mutant, purified alone (enzyme)
[4]
  pyruvate carboxylase activity of hybrid holoenzymes (A49T and K581A β subunits mixed in a 1:1 ratio, then α subunit added), against the wild-type holoenzyme (% of wild-type activity): 29

## MfPC β subunit with the surface entropy reduction mutations K419A, E421A and E422A, untagged (enzyme)
[5]
  stoichiometry N: 2 β per α
[6]
  stoichiometry N: 2
[7]
  stoichiometry N: 2 β per α
[8]
  stoichiometry N: 2

## Methylobacillus flagellatus pyruvate carboxylase (MfPC) β subunit, untagged, co-expressed with the α subunit (enzyme)
[9]
  stoichiometry N: 2 β per α

B1: Staphylococcus aureus pyruvate carboxylase (SaPC), single-chain (enzyme, UniProt A0A0H3JRU9 1-1150, looked up)
chain: MKQIKKLLVANRGEIAIRIFRAAAELDISTVAIYSNEDKSSLHRYKADESYLVGSDLGPAESYLNIERIIDVAKQANVDAIHPGYGFLSENEQFARRCAEEGIKFIGPHLEHLDMFGDKVKARTTAIKADLPVIPGTDGPIKSYELAKEFAEEAGFPLMIKATSGGGGKGMRIVREESELEDAFHRAKSEAEKSFGNSEVYIERYIDNPKHIEVQVIGDEHGNIVHLFERDCSVQRRHQKVVEVAPSVGLSPTLRQRICDAAIQLMENIKYVNAGTVEFLVSGDEFFFIEVNPRVQVEHTITEMVTGIDIVKTQILVAAGADLFGEEINMPQQKDITTLGYAIQCRITTEDPLNDFMPDTGTIIAYRSSGGFGVRLDAGDGFQGAEISPYYDSLLVKLSTHAISFKQAEEKMVRSLREMRIRGVKTNIPFLINVMKNKKFTSGDYTTKFIEETPELFDIQPSLDRGTKTLEYIGNVTINGFPNVEKRPKPDYELASIPTVSSSKIASFSGTKQLLDEVGPKGVAEWVKKQDDVLLTDTTFRDAHQSLLATRVRTKDMINIASKTADVFKDGFSLEMWGGATFDVAYNFLKENPWERLERLRKAIPNVLFQMLLRASNAVGYKNYPDNVIHKFVQESAKAGIDVFRIFDSLNWVDQMKVANEAVQEAGKISEGTICYTGDILNPERSNIYTLEYYVKLAKELEREGFHILAIKDMAGLLKPKAAYELIGELKSAVDLPIHLHTHDTSGNGLLTYKQAIDAGVDIIDTAVASMSGLTSQPSANSLYYALNGFPRHLRTDIEGMESLSHYWSTVRTYYSDFESDIKSPNTEIYQHEMPGGQYSNLSQQAKSLGLGERFDEVKDMYRRVNFLFGDIVKVTPSSKVVGDMALYMVQNDLDEQSVITDGYKLDFPESVVSFFKGEIGQPVNGFNKDLQAVILKGQEALTARPGEYLEPVDFEKVRELLEEEQQGPVTEQDIISYVLYPKVYEQYIQTRNQYGNLSLLDTPTFFFGMRNGETVEIEIDKGKRLIIKLETISEPDENGNRTIYYAMNGQARRIYIKDENVHTNANVKPKADKSNPSHIGAQMPGSVTEVKVSVGETVKANQPLLITEAMKMETTIQAPFDGVIKQVTVNNGDTIATGDLLIEIEKATD
notes: single-chain pyruvate carboxylase, Staphylococcus aureus; Used as a control in the ultracentrifugation
[10]
  stoichiometry N: 4
